Experimental data: article PMC2830067 (Journal of molecular biology, 2009)

B1: Aquifex aeolicus GatCAB C-subunit (GatC) (natural protein, UniProt O67904 1-94, looked up)
chain: MVDREWVLKIAKLARLELKEEEIEVFQKQLSDILDFIDQLKELDTENVEPYIQEFEETPMREDEPHPSLDREKALMNAPERKDGFFVVPRVVEV
B2: Aquifex aeolicus GatCAB A-subunit (GatA) (enzyme, UniProt O66610 1-478, looked up)
chain: MLWKKSLSELRELLKRGEVSPKEVVESFYDRYNQTEEKVKAYITPLYGKALKQAESLKERELPLFGIPIAVKDNILVEGEKTTCASKILENFVAPYDATVIERLKKAGALIVGKTNLDEFAMGSSTEYSAFFPTKNPWDLERVPGGSSGGSAASVAVLSAPVSLGSDTGGSIRQPASFCGVIGIKPTYGRVSRYGLVAFASSLDQIGVFGRRTEDVALVLEVISGWDEKDSTSAKVPVPEWSEEVKKEVKGLKIGLPKEFFEYELQPQVKEAFENFIKELEKEGFEIKEVSLPHVKYSIPTYYIIAPSEASSNLARYDGVRYGYRAKEYKDIFEMYARTRDEGFGPEVKRRIMLGTFALSAGYYDAYYLKAQKVRRLITNDFLKAFEEVDVIASPTTPTLPFKFGERLENPIEMYLSDILTVPANLAGLPAISIPIAWKDGLPVGGQLIGKHWDETTLLQISYLWEQKFKHYEKIPLT
modifications: acyl-enzyme intermediate at Ser171 formed with Asn or Gln in the co-crystals

Molecular target: T1, Aquifex aeolicus GatCAB B-subunit (GatB) (Aquifex aeolicus, UniProt O66766 1-478)
T1 sequence (looked up): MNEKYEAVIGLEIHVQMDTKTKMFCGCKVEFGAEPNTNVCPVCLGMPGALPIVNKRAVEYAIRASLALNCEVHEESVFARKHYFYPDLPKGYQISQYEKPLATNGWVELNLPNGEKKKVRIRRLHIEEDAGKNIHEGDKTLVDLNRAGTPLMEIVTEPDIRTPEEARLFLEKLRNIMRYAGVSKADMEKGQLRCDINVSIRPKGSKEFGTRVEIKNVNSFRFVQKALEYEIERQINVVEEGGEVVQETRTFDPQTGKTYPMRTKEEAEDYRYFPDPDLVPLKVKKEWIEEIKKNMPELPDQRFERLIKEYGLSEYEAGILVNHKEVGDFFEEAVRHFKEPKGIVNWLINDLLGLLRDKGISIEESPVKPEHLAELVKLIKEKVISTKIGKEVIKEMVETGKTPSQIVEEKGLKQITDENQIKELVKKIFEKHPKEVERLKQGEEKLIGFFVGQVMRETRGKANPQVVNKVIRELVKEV
Assay: crystal structure

Binder	binding result
B1	binds
B2	binds
